Biological target: T1, mouse FLT1-FC chimeric protein with His-tag (mouse, UniProt P35969 23-759)
T1 sequence (looked up): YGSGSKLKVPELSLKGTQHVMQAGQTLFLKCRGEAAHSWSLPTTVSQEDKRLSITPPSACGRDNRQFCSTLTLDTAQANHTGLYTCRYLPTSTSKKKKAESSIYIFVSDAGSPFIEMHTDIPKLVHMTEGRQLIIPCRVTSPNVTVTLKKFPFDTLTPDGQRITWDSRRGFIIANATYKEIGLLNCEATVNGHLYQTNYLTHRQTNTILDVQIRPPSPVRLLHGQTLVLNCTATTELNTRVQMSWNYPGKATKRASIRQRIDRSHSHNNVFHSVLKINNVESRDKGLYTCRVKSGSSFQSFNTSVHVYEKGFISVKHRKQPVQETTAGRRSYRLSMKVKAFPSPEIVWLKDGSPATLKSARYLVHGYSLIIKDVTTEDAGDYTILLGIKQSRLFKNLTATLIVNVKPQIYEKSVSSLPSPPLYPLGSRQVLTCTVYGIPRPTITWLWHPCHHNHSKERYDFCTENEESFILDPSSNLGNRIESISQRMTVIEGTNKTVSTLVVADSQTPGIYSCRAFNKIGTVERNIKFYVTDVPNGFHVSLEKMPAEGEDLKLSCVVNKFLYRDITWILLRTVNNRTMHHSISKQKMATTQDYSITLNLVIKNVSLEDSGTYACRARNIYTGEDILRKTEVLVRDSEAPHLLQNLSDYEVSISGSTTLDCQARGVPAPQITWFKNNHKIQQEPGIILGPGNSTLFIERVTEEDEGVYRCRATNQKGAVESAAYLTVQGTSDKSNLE
Assay: ELISA

binding result: binds
B1: recombinant mouse PlGF2 (ligand, UniProt P49764 19-158, looked up)
chain: VHSQGALSAGNNSTEVEVVPFNEVWGRSYCRPMEKLVYILDEYPDEVSHIFSPSCVLLSRCSGCCGDEGLHCVPIKTANITMQILKIPPNRDPHFYVEMTFSQDVLCECRPILETTKAERRKTKGKRKRSRNSQTEEPHP

Source: doi:10.1101/609735 (bioRxiv, 2019)
